# Data reported in US20220194987A1.
# Positions of bridges follow the written chain, without caps; N, C: chain ends. No end group written: not given here.
# Experiments:
# [1] = target: human BKα channel ZERO isoform (human) (UniProt Q12791); assay: cell-based or functional assay
# [2] = target: human BKα channel ZERO isoform (human) (UniProt Q12791); assay: phagemid display panning, positive selection on HEK293 cells expressing human BKα ZERO; enrichment over the theoretical frequency in the library
"suppression of channel openings (patch clamp, HEK293 cells) (fraction of openings suppressed) [1]",fold enrichment of its motifs in the phagemid panning [2] [fold],"probability of opening, combination of pskan1 and pskan4, 10 microM, outside-out patches [1] [fold]",Binder
0.67,> 1000,,CRRGLVQVC (disulfide 1-9; also: TFA salt) [LS3]
,,1.6,CPPGRGAVC (disulfide 1-9) [LS4]
,,1.6,CARGVYRVC (disulfide 1-9) [LS1]
